{"source": "patent US6770446B1", "about": "“Cell systems having specific interaction of peptide binding pairs” (Wyeth, priority 1994, dated 2004)", "molecules": {"B1": {"name": "N-terminus of the potassium channel 4.3 (hKv4.3N) fused to the Gal4 DNA binding domain (hKv4.3N-pGBT9) (other, yeast;human, UniProt P04386 1-147, looked up)", "chain": "MKLLSSIEQACDICRLKKLKCSKEKPKCAKCLKNNWECRYSPKTKRSPLTRAHLTEVESRLERLEQLFLLIFPREDLDMILKMDSLQDIKALLTGLFVQDNVNKDAVTDRLASVETDMPLTLRQHRISATSSSEESSNKGQRQLTVSMAAGVAAWLPFARAAAIGWMPVANCPMPLAPADKNKRQDELIVLNVSGRRFQTWRTTLERYPDTLLGSTEKEFFFNEDTKEYFFDRDPEVFRCVLNFYRTGKLHYPRYECISAYDDELAFYGILPEIIGDCCYEEYKDRKRENAERLMDDNDSENNQESMPSLSFRQTMWRAFENPHTST"}, "B2": {"name": "PRL: mature porcine prolactin expressed as free peptide from pCUP plasmid (protein)", "chain": "LPICPSGAVNCQVSLRDLFDRAVILSHYIHNLSSEMFNEFDKRYAQGRGFITKAINSCHTSSLSTPEDKEQAQQIHHEVLLNLILRVLRSWNDPLYHLVTEVRGMQEAPDAILSRAIEIEEQNKRLLEGMEKIVGQVHPGIKENEVYSVWSGLPSLQMADEDTRLFAFYNLLHCLRRDSHKIDNYLKLLKCRIIYDSNC", "modifications": "left off: large carriers; small tags and cut ends", "notes": "mature porcine prolactin expressed as free peptide from pCUP plasmid"}, "B3": {"name": "porcine growth hormone (GH) fused to the Gal4 activation domain (GH in pACT-II) (ligand, UniProt P01248 27-216, looked up, not shown: large carriers; small tags and cut ends)", "chain": "FPAMPLSSLFANAVLRAQHLHQLAADTYKEFERAYIPEGQRYSIQNAQAAFCFSETIPAPTGKDEAQQRSDVELLRFSLLLIQSWLGPVQFLSRVFTNSLVFGTSDRVYEKLKDLEEGIQALMRELEDGSPRAGQILKQTYDKFDTNLRSDDALLKNYGLLSCFKKDLHKAETYLRVMKCRRFVESSCAF", "notes": "mature; Expressed inside yeast (two-hybrid); also called GH-Gal4 fusion protein; GH fusion"}, "B4": {"name": "GH: mature porcine growth hormone expressed as free ligand from pCUP plasmid (protein, UniProt P01248 27-216, looked up)", "Somatotropin": "B3 chain"}, "B5": {"name": "free porcine growth hormone expressed from pCUP (GH-pCUP) (ligand, UniProt P01248 27-216, looked up)", "chain": "B3 chain", "notes": "mature; Non-fusion GH; also called free GH; free ligand"}}, "key": {"KDR": {"biological_target": "KDR (Homo sapiens, UniProt P35968)"}, "[1]": {"biological_target": "RGS-Z fused to the Gal4 activation domain (RGS-Z-pACT2) (yeast; human) (UniProt O76081)", "test": "cell-based or functional assay"}, "[2]": {"biological_target": "T1, KChIP1 fused to the Gal4 activation domain (hKChIP1-pACT2) (yeast; human, UniProt Q9NZI2-2 1-216, limits assumed)", "T1 sequence (looked up)": "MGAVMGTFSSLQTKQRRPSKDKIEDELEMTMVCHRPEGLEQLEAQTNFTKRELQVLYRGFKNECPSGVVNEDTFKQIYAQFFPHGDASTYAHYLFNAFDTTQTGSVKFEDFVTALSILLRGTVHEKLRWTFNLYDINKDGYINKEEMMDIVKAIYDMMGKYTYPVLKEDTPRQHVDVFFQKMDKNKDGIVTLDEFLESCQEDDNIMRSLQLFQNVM", "test": "cell-based or functional assay"}, "[3]": {"biological_target": "T2, GH and GHR fusion proteins (Rattus norvegicus, UniProt P16310)", "T2 construct": "encoding amino acids 1-247 of the rat GHR (Baumbach et al., 1989); expressed in transfected cells; host or cells: Saccharomyces cerevisiae CY770 (URA- derivative of Y190)", "T2 sequence (P16310 19-265)": "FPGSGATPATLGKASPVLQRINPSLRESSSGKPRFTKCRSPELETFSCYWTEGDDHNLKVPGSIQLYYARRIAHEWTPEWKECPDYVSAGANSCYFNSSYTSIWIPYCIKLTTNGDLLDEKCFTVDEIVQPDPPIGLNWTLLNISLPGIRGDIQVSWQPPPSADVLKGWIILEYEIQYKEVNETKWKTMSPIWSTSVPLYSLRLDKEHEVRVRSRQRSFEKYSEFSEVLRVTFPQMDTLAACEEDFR", "test": "Yeast two-hybrid competition assay: free peptide co-expressed with GH and GHR fusion proteins, growth on selective medium", "type": "cell-based", "design": "key to Growth: +: scored for cell growth, indicated by a plus", "details": "for Effect of co-expressed free peptide on GH-GHR-dependent cell growth on selective medium: free peptide expressed from pCUP in a strain with GH and GHR fusions"}, "[4]": {"biological_target": "T3, PRL and PRLR fusion proteins (Sus scrofa, UniProt Q6JTA8, M232L/S231T)", "T3 construct": "flank the extracellular domain of the PRLR, encoding amino acids 1-229; expressed in transfected cells; host or cells: Saccharomyces cerevisiae (URA- derivative of Y190; strains CY786/CY787)", "T3 sequence (Q6JTA8 with tags, fused parts or gaps)": "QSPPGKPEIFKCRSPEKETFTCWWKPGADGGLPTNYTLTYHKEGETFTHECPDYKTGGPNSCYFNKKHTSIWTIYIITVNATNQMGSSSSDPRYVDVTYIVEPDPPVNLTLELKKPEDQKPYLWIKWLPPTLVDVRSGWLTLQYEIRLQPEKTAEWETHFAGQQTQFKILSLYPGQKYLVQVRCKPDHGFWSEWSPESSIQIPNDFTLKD", "test": "Yeast two-hybrid competition assay: free peptide co-expressed with PRL and PRLR fusion proteins, growth on selective medium", "type": "cell-based, porcine", "details": "free peptide expressed from pCUP in a strain with PRL and PRLR fusions", "from_the_text": "To expand and validate this technology, a similar system was developed using the peptide hormone prolactin (PRL) and its receptor. Prolactin is structurally related to GH and the prolactin receptor (PRLR) is also a member of the cytokine receptor superfamily. […] Mature porcine PRL is generated as a fusion to the GAL4 activation domain. Oligonucleotides are designed to pig PRL (obtained from GenBank; […] No. X14068), and used to generate the mature pig PRL protein hormone from a pig pituitary lambda gt11 library, using standard PCR methods. A 31 base 5' oligonucleotide includes an EcoRI site ([NT] ID NO: 7) and corresponds to sequences encoding amino acids 1-7. A 30 base 3' oligonucleotide contains an EcoRI site ([NT] ID NO: 8) and corresponds to a region of cDNA 3' to the endogenous termination codon. A 600 bp fragment is obtained, ligated into vector pCR 11, and confirmed by restriction enzyme digest and sequence analysis. The PRL cDNA is cloned into pACT-II via the EcoRI site. The extracellular domain of the porcine PRL receptor (PRLR) is generated as a fusion to GAL4 DNA binding domain. Oligonucleotides are designed based on sequence of the mouse PRLR (Davis and Linzer, 1989) A 31 base 5' oligonucleotide contains a […] ID NO: 9) while the 31 base 3' oligonucleotide contains a termination codon followed by a […] ID NO: 10). […]"}, "[5]": {"biological_target": "T4, extracellular domain of rat growth hormone receptor (GHR, amino acids 1-247) fused to the Gal4 DNA binding … (yeast; rat, UniProt P04386 1-147; P16310 19-265)", "T4 construct": "Expressed inside yeast (two-hybrid); also called GHR fusion; GHR-GAL4 fusion; not shown: polylinker residues of pAS2; not described", "test": "yeast two-hybrid, HIS3 growth on selective medium (strain CY722)"}, "[6]": {"biological_target": "T4, extracellular domain of rat growth …", "test": "in vivo competition in yeast two-hybrid, free GH from pCUP (strain CY781)"}}, "note": "Where “and” joins values, the source holds several entries; their conditions need not be identical. Identical values can stand only once."}
{"molecule": "VEGF", "values": [{"measurement": "Growth on selective media of strain expressing two KDR receptor fusion proteins plus free ligand", "setting": "KDR", "result": "substantial growth on selective media"}]}
{"molecule": "constitutively active G-alphaZ Q205L fused to the Gal4 DNA binding domain (Q205L/GaZ-pGBKT7) (from UniProt P04386 1-147; P19086 1-355)", "values": [{"measurement": "firefly luciferase activity, ybn66L in a 75:25 mix with ybn77L (OD 0.25 and 0.15) (luminescence units)", "setting": "[1]", "result": 950000}, {"measurement": "increase in Renilla luciferase activity, strain ybn70L", "setting": "[1]", "result": 40, "unit": "fold"}, {"measurement": "induction of luciferase activity, interaction strain (ybn66L) against control strains", "setting": "[1]", "result": "5 fold and 10 fold"}]}
{"molecule": "B1", "values": [{"measurement": "increase in Renilla luciferase activity, strain ybn77L", "setting": "[2]", "result": 25, "unit": "fold"}, {"measurement": "increase in luciferase activity (Gal1/10-luciferase reporter), both fusions against one fusion plus empty vector", "setting": "[2]", "result": 30, "unit": "fold"}, {"measurement": "increase in luciferase activity (low copy CEN Gal-luciferase reporter Kp132), test strain against negative control strain", "setting": "[2]", "result": 100, "unit": "fold"}]}
{"molecule": "B2", "values": [{"measurement": "Effect of co-expressed free peptide on GH-GHR-dependent cell growth on selective medium", "setting": "[3]", "result": "grows on selective medium"}, {"measurement": "Growth", "setting": "[3]; strain with GH and GHR fusions plus free peptide expressed from pCUP, selective medium, 3 to 5 days at 30 C", "result": "+"}, {"measurement": "Effect of co-expressed free peptide on PRL-PRLR-dependent cell growth on selective medium", "setting": "[4]", "result": "growth is abrogated"}]}
{"molecule": "B3", "values": [{"measurement": "binding result", "setting": "[5]", "result": "binds"}]}
{"molecule": "B4", "values": [{"measurement": "Effect of co-expressed free peptide on GH-GHR-dependent cell growth on selective medium", "setting": "[3]", "result": "block GH-GHR-dependent cell growth on selective medium"}]}
{"molecule": "B5", "values": [{"measurement": "binding result", "setting": "[6]", "result": "binds"}]}
